5 molecules from paper PMC4157578 (Molecular Cell, 2014) can be followed below.

To fix the notation:
B1: CBP-Mcm3 (subunit of the MCM complex) (natural protein)
chain: MEGSTGFDGDATTFFAPDAVFGDRVRRFQEFLDTFTSYRDSVRSIQVYNSNNAANYNDDQDDADERDLLGDDDGDDLEKEKKAASSTSLNILPHRIIISLDDLREFDRSFWSGILVEPAYFIPPAEKALTDLADSMDDVPHPNASAVSSRHPWKLSFKGSFGAHALSPRTLTAQHLNKLVSVEGIVTKTSLVRPKLIRSVHYAAKTGRFHYRDYTDATTTLTTRIPTPAIYPTEDTEGNKLTTEYGYSTFIDHQRITVQEMPEMAPAGQLPRSIDVILDDDLVDKTKPGDRVNVVGVFKSLGAGGMNQSNSNTLIGFKTLILGNTVYPLHARSTGVAARQMLTDFDIRNINKLSKKKDIFDILSQSLAPSIYGHDHIKKAILLMLMGGVEKNLENGSHLRGDINILMVGDPSTAKSQLLRFVLNTASLAIATTGRGSSGVGLTAAVTTDRETGERRLEAGAMVLADRGVVCIDEFDKMTDVDRVAIHEVMEQQTVTIAKAGIHTTLNARCSVIAAANPVFGQYDVNRDPHQNIALPDSLLSRFDLLFVVTDDINEIRDRSISEHVLRTHRYLPPGYLEGEPVRERLNLSLAVGEDADINPEEHSNSGAGVENEGEDDEDHVFEKFNPLLQAGAKLAKNKGNYNGTEIPKLVTIPFLRKYVQYAKERVIPQLTQEAINVIVKNYTDLRNDDNTKKSPITARTLETLIRLATAHAKVRLSKTVNKVDAKVAANLLRFALLGEDIGNDIDEEESEYEEALSKRSPQKSPKKRQRVRQPASNSGSPIKSTPRRSTASSVNATPSSARRILRFQDDEQNAGEDDNDIMSPLPADEEAELQRRLQLGLRVSPRRREHLHAPEEGSSGPLTEVGTPRLPNVSSAGQDDEQQQSVISFDNVEPGTISTGRLSLISGIIARLMQTEIFEEESYPVASLFERINEELPEEEKFSAQEYLAGLKIMSDRNNLMVADDKVWRV
B4: Mcm7 (subunit of the MCM complex) (natural protein)
chain: MSAALPSIQLPVDYNNLFNEITDFLVTFKQDTLSSDATRNENEDENLDAENIEQHLLEKGPKYMAMLQKVANRELNSVIIDLDDILQYQNEKFLQGTQADDLVSAIQQNANHFTELFCRAIDNNMPLPTKEIDYKDDVLDVILNQRRLRNERMLSDRTNEIRSENLMDTTMDPPSSMNDALREVVEDETELFPPNLTRRYFLYFKPLSQNCARRYRKKAISSKPLSVRQIKGDFLGQLITVRGIITRVSDVKPAVEVIAYTCDQCGYEVFQEVNSRTFTPLSECTSEECSQNQTKGQLFMSTRASKFSAFQECKIQELSQQVPVGHIPRSLNIHVNGTLVRSLSPGDIVDVTGIFLPAPYTGFKALKAGLLTETYLEAQFVRQHKKKFASFSLTSDVEERVMELITSGDVYNRLAKSIAPEIYGNLDVKKALLLLLVGGVDKRVGDGMKIRGDINVCLMGDPGVAKSQLLKAICKISPRGVYTTGKGSSGVGLTAAVMKDPVTDEMILEGGALVLADNGICCIDEFDKMDESDRTAIHEVMEQQTISISKAGINTTLNARTSILAAANPLYGRYNPRLSPLDNINLPAALLSRFDILFLMLDIPSRDDDEKLAEHVTYVHMHNKQPDLDFTPVEPSKMREYIAYAKTKRPVMSEAVNDYVVQAYIRLRQDSKREMDSKFSFGQATPRTLLGIIRLSQALAKLRLADMVDIDDVEEALRLVRVSKESLYQETNKSKEDESPTTKIFTIIKKMLQETGKNTLSYENIVKTVRLRGFTMLQLSNCIQEYSYLNVWHLINEGNTLKFVDDGTMDTDQEDSLVSTPKLAPQTTASANVSAQDSDIDLQDA

Holding throughout (assay): SEC
A general note: SEC sorts molecules by how far they enter the pores of the column.

Assay [1] concerns the target Mcm6 (subunit of the MCM complex) (S. cerevisiae, UniProt P53091 1-1017).
Assay [2] deals with B4.
Assay [3] addresses B1.

Chain of Mcm6 (subunit of the MCM complex) (P53091 whole entry, one chain of several): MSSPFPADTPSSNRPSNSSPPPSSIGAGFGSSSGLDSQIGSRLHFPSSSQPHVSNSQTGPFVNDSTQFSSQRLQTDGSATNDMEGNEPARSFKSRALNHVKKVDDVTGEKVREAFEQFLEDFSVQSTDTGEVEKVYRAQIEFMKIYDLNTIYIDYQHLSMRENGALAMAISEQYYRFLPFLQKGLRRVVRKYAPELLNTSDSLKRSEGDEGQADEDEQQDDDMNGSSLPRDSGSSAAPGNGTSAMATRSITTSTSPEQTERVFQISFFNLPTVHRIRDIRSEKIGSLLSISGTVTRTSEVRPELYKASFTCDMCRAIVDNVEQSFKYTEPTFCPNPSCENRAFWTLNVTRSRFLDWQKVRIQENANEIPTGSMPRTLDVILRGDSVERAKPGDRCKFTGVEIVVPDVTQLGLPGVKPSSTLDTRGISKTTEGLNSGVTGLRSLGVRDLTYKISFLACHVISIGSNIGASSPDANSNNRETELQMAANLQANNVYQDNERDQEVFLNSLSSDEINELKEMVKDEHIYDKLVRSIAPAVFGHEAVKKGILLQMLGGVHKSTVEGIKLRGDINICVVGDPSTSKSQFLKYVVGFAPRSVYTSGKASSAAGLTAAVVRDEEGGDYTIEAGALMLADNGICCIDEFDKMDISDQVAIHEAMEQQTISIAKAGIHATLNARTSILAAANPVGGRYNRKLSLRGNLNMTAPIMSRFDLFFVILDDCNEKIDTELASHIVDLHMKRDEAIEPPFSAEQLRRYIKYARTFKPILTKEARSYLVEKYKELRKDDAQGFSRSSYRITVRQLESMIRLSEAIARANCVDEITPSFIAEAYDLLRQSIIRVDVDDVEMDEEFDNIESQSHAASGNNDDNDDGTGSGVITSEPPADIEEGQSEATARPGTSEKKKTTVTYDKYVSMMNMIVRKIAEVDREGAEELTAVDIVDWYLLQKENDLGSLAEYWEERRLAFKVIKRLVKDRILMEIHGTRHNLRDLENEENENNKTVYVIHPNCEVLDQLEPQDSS

Turning to B1, the binding result in assay [1] is listed as “binds”.

B2: Mcm5 (subunit of the MCM complex) (natural protein)
chain: MSFDRPEIYSAPVLQGESPNDDDNTEIIKSFKNFILEFRLDSQFIYRDQLRNNILVKNYSLTVNMEHLIGYNEDIYKKLSDEPSDIIPLFETAITQVAKRISILSRAQSANNNDKDPENTSMDTDSLLLNSLPTFQLILNSNANQIPLRDLDSEHVSKIVRLSGIIISTSVLSSRATYLSIMCRNCRHTTSITINNFNSITGNTVSLPRSCLSTIESESSMANESNIGDESTKKNCGPDPYIIIHESSKFIDQQFLKLQEIPELVPVGEMPRNLTMTCDRYLTNKVIPGTRVTIVGIYSIYNSKNGAGSGRSGGGNGGSGVAIRTPYIKILGIQSDVETSSIWNSVTMFTEEEEEEFLQLSRNPKLYEILTNSIAPSIFGNEDIKKAIVCLLMGGSKKILPDGMRLRGDINVLLLGDPGTAKSQLLKFVEKVSPIAVYTSGKGSSAAGLTASVQRDPMTREFYLEGGAMVLADGGVVCIDEFDKMRDEDRVAIHEAMEQQTISIAKAGITTVLNSRTSVLAAANPIYGRYDDLKSPGDNIDFQTTILSRFDMIFIVKDDHNEERDISIANHVINIHTGNANAMQNQQEENGSEISIEKMKRYITYCRLKCAPRLSPQAAEKLSSNFVTIRKQLLINELESTERSSIPITIRQLEAIIRITESLAKLELSPIAQERHVDEAIRLFQASTMDAASQDPIGGLNQASGTSLSEIRRFEQELKRRLPIGWSTSYQTLRREFVDTHRFSQLALDKALYALEKHETIQLRHQGQNIYRSGV
As to B2, the binding result in assay [2] is on record as “binds”.

B3: Mcm4 (subunit of the MCM complex) (natural protein)
chain: MSQQSSSPTKEDNNSSSPVVPNPDSVPPQLSSPALFYSSSSSQGDIYGRNNSQNLSQGEGNIRAAIGSSPLNFPSSSQRQNSDVFQSQGRQGRIRSSASASGRSRYHSDLRSDRALPTSSSSLGRNGQNRVHMRRNDIHTSDLSSPRRIVDFDTRSGVNTLDTSSSSAPPSEASEPLRIIWGTNVSIQECTTNFRNFLMSFKYKFRKILDEREEFINNTTDEELYYIKQLNEMRELGTSNLNLDARNLLAYKQTEDLYHQLLNYPQEVISIMDQTIKDCMVSLIVDNNLDYDLDEIETKFYKVRPYNVGSCKGMRELNPNDIDKLINLKGLVLRSTPVIPDMKVAFFKCNVCDHTMAVEIDRGVIQEPARCERIDCNEPNSMSLIHNRCSFADKQVIKLQETPDFVPDGQTPHSISLCVYDELVDSCRAGDRIEVTGTFRSIPIRANSRQRVLKSLYKTYVDVVHVKKVSDKRLDVDTSTIEQELMQNKVDHNEVEEVRQITDQDLAKIREVAAREDLYSLLARSIAPSIYELEDVKKGILLQLFGGTNKTFTKGGRYRGDINILLCGDPSTSKSQILQYVHKITPRGVYTSGKGSSAVGLTAYITRDVDTKQLVLESGALVLSDGGVCCIDEFDKMSDSTRSVLHEVMEQQTISIAKAGIITTLNARSSILASANPIGSRYNPNLPVTENIDLPPPLLSRFDLVYLVLDKVDEKNDRELAKHLTNLYLEDKPEHISQDDVLPVEFLTMYISYAKEHIHPIITEAAKTELVRAYVGMRKMGDDSRSDEKRITATTRQLESMIRLAEAHAKMKLKNVVELEDVQEAVRLIRSAIKDYATDPKTGKIDMNLVQTGKSVIQRKLQEDLSREIMNVLKDQASDSMSFNELIKQINEHSQDRVESSDIQEALSRLQQEDKVIVLGEGVRRSVRLNNRV
B3: the binding result in assay [3] is listed as “binds”.
Same read-out and setting: next, B4: “binds”.

B5: Mcm2 (subunit of the MCM complex) (natural protein)
chain: MSDNRRRRREEDDSDSENELPPSSPQQHFRGGMNPVSSPIGSPDMINPEGDDNEVDDVPDIDEVEEQMNEVDLMDDNMYEDYAADHNRDRYDPDQVDDREQQELSLSERRRIDAQLNERDRLLRNVAYIDDEDEEQEGAAQLDEMGLPVQRRRRRRQYEDLENSDDDLLSDMDIDPLREELTLESLSNVKANSYSEWITQPNVSRTIARELKSFLLEYTDETGRSVYGARIRTLGEMNSESLEVNYRHLAESKAILALFLAKCPEEMLKIFDLVAMEATELHYPDYARIHSEIHVRISDFPTIYSLRELRESNLSSLVRVTGVVTRRTGVFPQLKYVKFNCLKCGSILGPFFQDSNEEIRISFCTNCKSKGPFRVNGEKTVYRNYQRVTLQEAPGTVPPGRLPRHREVILLADLVDVSKPGEEVEVTGIYKNNYDGNLNAKNGFPVFATIIEANSIKRREGNTANEGEEGLDVFSWTEEEEREFRKISRDRGIIDKIISSMAPSIYGHRDIKTAVACSLFGGVPKNVNGKHSIRGDINVLLLGDPGTAKSQILKYVEKTAHRAVFATGQGASAVGLTASVRKDPITKEWTLEGGALVLADKGVCLIDEFDKMNDQDRTSIHEAMEQQSISISKAGIVTTLQARCSIIAAANPNGGRYNSTLPLAQNVSLTEPILSRFDILCVVRDLVDEEADERLATFVVDSHVRSHPENDEDREGEELKNNGESAIEQGEDEINEQLNARQRRLQRQRKKEEEISPIPQELLMKYIHYARTKIYPKLHQMDMDKVSRVYADLRRESISTGSFPITVRHLESILRIAESFAKMRLSEFVSSYDLDRAIKVVVDSFVDAQKVSVRRQLRRSFAIYTLGH
In the case of B5, the binding result in assay [3] was “binds”.
